B1: FAM50A (parent)
chain: HIFPASRWEPYDPEKKWDKYTIR
B2: LYSMD4 (parent)
chain: LLQRELAQEDSLNKLALQYGCKVA

Variants of: B1
Experiment: protein stability index of a GFP-peptide fusion (GPS, HEK-293T) (PSI 1-6); higher = more stable
Conditions: c terminus: native
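Also: lentivirally expressed fusions sorted by FACS into six bins by GFP to DsRed ratio, PSI derived from sequencing read proportions per bin multiplied by bin number.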

Protein stability index of substitutions, site by site:
Y20: C 1.77; N 2.73; F 2.67; L 2.26; H 2.74; A 1.86; V 2.28; R 2.81; I 1.49; W 2.96; T 3.05; E 2.02; K 2.6; G 2.16; S 2.74; D 3.29; Q 2.48; M 2.2; P 2.93
R23: D 2.58; N 2.27; P 3.67; H 2.2; V 2.27; Q 2.12; G 2.59; K 2.4; T 1.87; C 2.08; W 1.72; F 1.85; S 2.1; Y 2.1; L 2.54; E 2.04; I 2.21; M 2.1; A 3.17
E14: G 2.5; N 2.42; P 2.2; K 2.27; M 2.38; A 2.66; F 1.55; Y 2.68; S 2.65; D 2.02; C 2; W 1.65; Q 2.04; V 1.59; T 1.96; I 2.68; R 2.49; H 1.76; L 2.1
K16: C 1.96; F 3.28; A 1.76; L 2.63; G 1.77; S 2.6; P 2.48; Y 1.66; H 1.72; W 1.92; I 1.54; M 1.71; T 1.81; V 1.97; E 2.79; Q 2.79; D 1.78; R 2.59
P13: Y 2.13
K15: P 1.99; W 3; V 2.1; R 1.8; Q 2.13; D 2.05; T 2.33; C 3.43; G 2.27; N 1.71; S 2.67; M 2.16; Y 2.12; F 2.2; L 1.57; A 2.23; E 1.66; I 1.9; H 1.45
D18: R 2.01; M 1.92; P 2.99; V 2.17; G 2.28; S 1.45; N 4.48; I 2.48; Y 2.39; L 2.08; C 2.61; K 3.01; F 1.55; E 3.2; Q 2; A 1.96; H 2.58; T 2.37
K19: L 2.04; E 2.53; R 2.6; S 1.89; T 3.02; G 2.84; M 1.9; I 2.22; D 2.24; W 3.02; P 2.3; A 2.18; V 1.31; Y 1.35; N 2.52; C 1.81; H 2.03; Q 2.63; F 2.25
T21: W 2.86; V 2.55; R 2.38; G 2.38; P 2.36; K 1.93; M 2.08; Y 2.71; I 1.74; L 2.32; A 2.08; F 2.06; C 1.97; S 1.89; E 2.7; Q 2.18; N 2.54; H 2.2
W17: V 2.62; Y 2.29; S 3; T 2.25; L 2.37; C 3.46; D 2.51; K 2.57; A 2.45; E 3.48; G 2.43; P 2.56; H 2.42; I 2.64; N 2.54; R 2.68; Q 3.14; M 2.61; F 2.9
I22: A 2.03; P 3.88; H 2.19; S 2.72; D 2.02; L 2.25; N 3.07; T 2.62; Q 2.91; W 2.06; C 2.15; V 2.75; K 3.3; R 1.59; E 2.25; G 2.29; M 2.05; Y 2.98; F 2.92

Variants of: B2
Experiment: as above
Conditions: c terminus: a fixed tail appended

Protein stability index, by site and new letter:
Q8: G 1.42; Y 2.21; E 1.84; P 1.48; S 2.25; I 1.89; L 1.58; N 3.38; K 1.66; R 1.47; M 1.92; A 1.73; F 1.59; D 4.68; T 1.45; H 1.54
L2: Q 1.86; P 2.31; D 2.63; A 2.26; T 1.91; Y 1.61; C 1.67; V 2.29; W 1.5; S 2.06; E 2.92; N 2.04; M 2.27; H 1.02; K 2.6; F 2.25; I 2.18
A7: Q 2.02; M 2.77; R 1.49; E 1.8; C 1.73; K 2.14; W 1.95; D 2.09; Y 2.12; P 1.97; H 2.72; T 1.87; I 2.63; F 2.73; V 1.48
D10: G 1.9; P 1.86; K 1.86; T 1.92; Y 1.82; Q 2.67; I 1.04; E 1.83; F 1.46; H 1.22; L 2.1; R 1.68
Q3: G 2.85; H 2.24; L 1.59; I 1.46; M 1.65; P 1.41; T 1.27; S 3.41; Y 1.3; N 2.3
S11: C 1.79; D 1.88; A 1.76
E9: P 1.63; G 1.28; Y 1.9; D 2.68; H 2.54; Q 2.2; A 1.53; W 1.02; N 2.4; R 1.94; I 2.69; M 1.85; K 1.35; C 1.53; L 3.17
R4: S 1.25; K 2.82; C 3.8; H 1.56; V 3.51; A 1.64; N 2.04; G 1.24; L 2.03; Y 3.28; P 2.06; D 2.08; T 1.9
L1: A 1.96; Q 1.32; P 1.51; E 1.5; G 1.52; K 1.99; N 2.09; W 2.31; H 1.91; I 2.28; R 1.6; T 1.8; F 1.55; Y 2.5; D 1.96
E5: D 1.44; T 2.55; V 2.88; F 3.86; A 3.05; H 1.91; K 1.76; S 1.87; P 1.99; Q 1; N 1.71; R 2.05; Y 2.21
L6: M 1.37; V 1.62; E 3; K 2.11; A 2.06; C 2.02; Q 2.18; D 2.5; S 1.67; G 1.95; W 1.87; Y 1.92; T 1.92; H 2.39; R 1.61; N 2.24; I 1.52
